A short description of the experiment: Enzyme activity for a poly-N-acetyllactosamine sugar chain, Namalwa cell extract, HPLC. The experiment is classed as biochemical. The following applies: substrate S; for Production (%) P1 / Production (%) P2 / Production (%) P3: relative value, total of products P1, P2 and P3 by each enzyme = 100%. The source says: Using a poly-N-acetyllactosamine sugar chain, it was examined that to which GlcNAc in the sugar chains, human Fuc-TIX and 5 types of human α1,3-fucosyltransferase (Fuc-TIII, Fuc-TIV, Fuc-TV, Fuc-TVI, and Fuc-TVII) that had been cloned so far transferred fucose.
Control plasmid (pAMo) and the human Fuc-TIX expression plasmid pAMo-FT9 were introduced into Namalwa cells according to the method shown in Example 1 (3), thereby obtaining stable transformants.
Namalwa cells expressing each of the other 5 types of human α1,3-fucosyltransferases (Fuc-TIII, Fuc-TIV, Fuc-TV, Fuc-TVI, and Fuc-TVII) were obtained according to the previous report (Glycoconjugate J., 13, 802-812, Biochem. Biophys. Res. Commun., 237, 131-137, 1997).
The resultant transformants (about 1×10^7) were collected in microtubes (1.5 ml, manufactured by Eppendolf), followed by centrifugation at 550×g for 7 minutes to collect the cells.
The collected cells were washed with 0.9 ml of PBS. The washed cells were suspended in 100 μl of a solution which consisted of 20 mM HEPES (pH 7.2) and 1% TrironX-100, then allowed to stand at 4° C. for 10 minutes. Subsequently the cells were disrupted using a ultrasonicator (Bioruptor; manufactured by COSMO BIO CO., LTD.)
After disruption of the cells, each supernatant was obtained by centrifugation at 550×g for 7 minutes and used as an enzyme sample. A poly-N-acetyllactosamine sugar chain (Galβ1-4GlcNAcβ1-3Galβ1-4GlcNAcβ1-3Galβ1-4GlcNAc) consisting of 6 sugars was fluorescently labeled with 2-aminobenzamide to make a sugar chain (Galβ1-4GlcNAcβ1-3Galβ1-4GlcNAcβ1-3Galβ1-4GlcNAc-2AB: abbreviated as S in FIGS. 13 and 15, and table 3), which was used as a substrate
Florescent labeling was performed using a Signal™ 2-AB glycan labeling kit (manufactured by Oxford GlycoScience). A poly-N-acetyllactosamine sugar chain (Galβ1-4GlcNAcβ1-3Galβ1-4GlcNAcβ1-3Galβ1-4GlcNAc) was prepared according to WO98/03524.
Samples were allowed to react in 20 μl of an assay solution [50 mM cacodylate (pH 6.8), 5 mM ATP, 10 mM L-fucose, 75 μM […] (manufactured by SIGMA), 25 mM MnCl2, 15 μM fluorescently labeled sugar chain substrate, 6 μl of the cell lysate above] at 37° C. for 2 hours, followed by treatment at 100° C. for 3 minutes to stop the reaction. Next 200 μl of water was added to the samples, and the supernatant was obtained by centrifugation at 10,000×g for 5 minutes. Using an aliquot of the supernatant (10 μl), products were analyzed by HPLC under the following conditions.
HPLC: • Column—TSK-gel ODS-80TsQA column (4.6×250 mm; TOSOH CORPORATION) • Eluate—0.02 M ammonium acetate (pH 4.0) containing 7% methanol • Elution temperature—50° C. • Flow rate—1.0 ml/min. • Detection—Fluorescence spectrum photometer FB-920 (manufactured by JASCO Corporation) (excitation wavelength: 330 nm, radiation wavelength: 420 nm)

The text below walks through data of patent US20080015165A1, “NOVEL POLYPEPTIDE” (KYOWA HAKKO KOGYO CO., LTD., priority 1998, published 2008).

B1: Fuc-TVII: known human α1,3-fucosyltransferase, previously cloned, expressed in Namalwa cells (protein, UniProt Q11130 1-342, looked up)
Alpha-(1,3)-fucosyltransferase …: MNNAGHGPTRRLRGLGVLAGVALLAALWLLWLLGSAPRGTPAPQPTITILVWHWPFTDQPPELPSDTCTRYGIARCHLSANRSLLASADAVVFHHRELQTRRSHLPLAQRPRGQPWVWASMESPSHTHGLSHLRGIFNWVLSYRRDSDIFVPYGRLEPHWGPSPPLPAKSRVAAWVVSNFQERQLRARLYRQLAPHLRVDVFGRANGRPLCASCLVPTVAQYRFYLSFENSQHRDYITEKFWRNALVAGTVPVVLGPPRATYEAFVPADAFVHVDDFGSARELAAFLTGMNESRYQRFFAWRDRLRVRLFTDWRERFCAICDRYPHLPRSQVYEDLEGWFQA
On to B1, for which the “Production (%) P1” value was found to be 0.0%, the “Production (%) P2” value was 0.0% and the “Production (%) P3” value was 0.0%. In addition, the major product entry (extract of Namalwa cells expressing the enzyme) is “no product”.

B2: Human Fuc-TIII: known human α1,3-fucosyltransferase, previously cloned, used for comparison (protein, UniProt P21217 1-361, looked up)
3-galactosyl-N-acetylglucosami …: MDPLGAAKPQWPWRRCLAALLFQLLVAVCFFSYLRVSRDDATGSPRAPSGSSRQDTTPTRPTLLILLRTWPFHIPVALSRCSEMVPGTADCHITADRKVYPQADMVIVHHWDIMSNPKSRLPPSPRPQGQRWIWFNLEPPPNCQHLEALDRYFNLTMSYRSDSDIFTPYGWLEPWSGQPAHPPLNLSAKTELVAWAVSNWKPDSARVRYYQSLQAHLKVDVYGRSHKPLPKGTMMETLSRYKFYLAFENSLHPDYITEKLWRNALEAWAVPVVLGPSRSNYERFLPPDAFIHVDDFQSPKDLARYLQELDKDHARYLSYFRWRETLRPRSFSWALDFCKACWKLQQESRYQTVRSIAAWFT
B2: the “Production (%) P1” value was determined as 2.0%, the “Production (%) P2” value amounted to 98.0% and the “Production (%) P3” value was determined as 0.0%.

B3: Fuc-TV: known human α1,3-fucosyltransferase, previously cloned, expressed in Namalwa cells (protein, UniProt Q11128 1-374, looked up)
4-galactosyl-N-acetylglucosami …: MDPLGPAKPQWLWRRCLAGLLFQLLVAVCFFSYLRVSRDDATGSPRPGLMAVEPVTGAPNGSRCQDSMATPAHPTLLILLWTWPFNTPVALPRCSEMVPGAADCNITADSSVYPQADAVIVHHWDIMYNPSANLPPPTRPQGQRWIWFSMESPSNCRHLEALDGYFNLTMSYRSDSDIFTPYGWLEPWSGQPAHPPLNLSAKTELVAWAVSNWKPDSARVRYYQSLQAHLKVDVYGRSHKPLPKGTMMETLSRYKFYLAFENSLHPDYITEKLWRNALEAWAVPVVLGPSRSNYERFLPPDAFIHVDDFQSPKDLARYLQELDKDHARYLSYFHWRETLRPRSFSWALAFCKACWKLQQESRYQTVRSIAAWFT
Consider B3, for which the “Production (%) P1” value worked out at 7.5%, the “Production (%) P2” value is on record as 92.5% and the “Production (%) P3” value worked out at 0.0%.

B4: Human Fuc-TVI: known human α1,3-fucosyltransferase, previously cloned, used for comparison (protein, UniProt P51993 1-359, looked up)
4-galactosyl-N-acetylglucosami …: MDPLGPAKPQWSWRCCLTTLLFQLLMAVCFFSYLRVSQDDPTVYPNGSRFPDSTGTPAHSIPLILLWTWPFNKPIALPRCSEMVPGTADCNITADRKVYPQADAVIVHHREVMYNPSAQLPRSPRRQGQRWIWFSMESPSHCWQLKAMDGYFNLTMSYRSDSDIFTPYGWLEPWSGQPAHPPLNLSAKTELVAWAVSNWGPNSARVRYYQSLQAHLKVDVYGRSHKPLPQGTMMETLSRYKFYLAFENSLHPDYITEKLWRNALEAWAVPVVLGPSRSNYERFLPPDAFIHVDDFQSPKDLARYLQELDKDHARYLSYFRWRETLRPRSFSWALAFCKACWKLQEESRYQTRGIAAWFT
In the case of B4, the “Production (%) P1” value turned out to be 8.3%, the “Production (%) P2” value was found to be 88.7% and the “Production (%) P3” value amounted to 3.0%.
